Source: article PMC6616073
No end group written: not given here.

B1: Lynx1 short linear (4), shorter loop II fragment of human Lynx1 with free terminal Cys (peptide)
peptide: CTRTYYTPTRMC
B2: Lynx1 short (3), shorter loop II fragment of human Lynx1 with terminal Cys, disulfide-cyclised (peptide)
peptide: CTRTYYTPTRMC
modifications: not fully specified (bridges); cysteine pairing not given here
B3: Lynx1 (1), synthetic loop II fragment of human Lynx1 with Cys added at both termini, disulfide-cyclised (peptide)
peptide: CTTRTYYTPTRMKVSKC
modifications: not fully specified (bridges); cysteine pairing not given here
B4: Lynx1 linear (2), synthetic 15-membered loop II fragment of human Lynx1 (peptide)
peptide: TTRTYYTPTRMKVSK

target: membrane-bound Torpedo californica nicotinic acetylcholine receptor (Torpedo californica); test: radioligand binding
Sequence (P02710 25-461 limits assumed, chain 1 of 4): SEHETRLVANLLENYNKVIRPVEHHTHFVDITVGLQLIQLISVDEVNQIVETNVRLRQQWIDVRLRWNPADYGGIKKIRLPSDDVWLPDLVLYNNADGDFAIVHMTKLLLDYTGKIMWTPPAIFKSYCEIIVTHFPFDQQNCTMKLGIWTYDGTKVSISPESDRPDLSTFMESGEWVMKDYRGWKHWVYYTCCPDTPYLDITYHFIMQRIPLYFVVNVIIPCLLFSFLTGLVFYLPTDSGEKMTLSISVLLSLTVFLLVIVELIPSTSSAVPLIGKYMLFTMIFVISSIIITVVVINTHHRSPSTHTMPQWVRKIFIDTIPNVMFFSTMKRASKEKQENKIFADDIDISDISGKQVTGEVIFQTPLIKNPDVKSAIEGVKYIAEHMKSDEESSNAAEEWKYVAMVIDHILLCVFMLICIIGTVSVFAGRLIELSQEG
Sequence (P02712 25-493 limits assumed, chain 2 of 4, further chain): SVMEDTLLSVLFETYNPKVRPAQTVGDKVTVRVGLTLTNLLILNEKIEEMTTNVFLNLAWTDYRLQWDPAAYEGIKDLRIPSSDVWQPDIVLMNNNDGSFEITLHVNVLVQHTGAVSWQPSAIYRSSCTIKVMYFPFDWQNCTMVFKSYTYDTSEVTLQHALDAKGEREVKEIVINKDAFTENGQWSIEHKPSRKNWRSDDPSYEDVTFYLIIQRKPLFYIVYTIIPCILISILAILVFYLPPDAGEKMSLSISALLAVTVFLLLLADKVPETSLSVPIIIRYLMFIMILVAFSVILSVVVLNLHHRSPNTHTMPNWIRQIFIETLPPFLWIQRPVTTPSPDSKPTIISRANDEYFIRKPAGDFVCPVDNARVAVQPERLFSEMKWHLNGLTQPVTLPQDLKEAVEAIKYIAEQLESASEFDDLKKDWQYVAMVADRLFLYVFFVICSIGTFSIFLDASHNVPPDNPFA
Sequence (P02714 18-506 limits assumed, chain 3 of 4, further chain): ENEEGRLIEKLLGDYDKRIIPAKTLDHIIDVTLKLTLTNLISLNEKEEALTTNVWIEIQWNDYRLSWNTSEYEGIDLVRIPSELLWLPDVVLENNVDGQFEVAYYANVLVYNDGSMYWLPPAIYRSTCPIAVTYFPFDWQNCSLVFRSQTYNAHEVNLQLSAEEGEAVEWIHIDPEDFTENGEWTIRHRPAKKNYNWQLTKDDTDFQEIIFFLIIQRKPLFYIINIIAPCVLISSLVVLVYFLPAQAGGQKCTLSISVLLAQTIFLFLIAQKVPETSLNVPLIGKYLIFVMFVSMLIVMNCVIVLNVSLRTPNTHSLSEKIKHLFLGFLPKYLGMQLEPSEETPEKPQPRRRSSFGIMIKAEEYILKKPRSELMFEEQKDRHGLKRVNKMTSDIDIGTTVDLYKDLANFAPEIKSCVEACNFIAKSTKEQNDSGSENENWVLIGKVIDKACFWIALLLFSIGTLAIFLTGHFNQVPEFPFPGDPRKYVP
Sequence (P02718 22-522 limits assumed, chain 4 of 4, further chain): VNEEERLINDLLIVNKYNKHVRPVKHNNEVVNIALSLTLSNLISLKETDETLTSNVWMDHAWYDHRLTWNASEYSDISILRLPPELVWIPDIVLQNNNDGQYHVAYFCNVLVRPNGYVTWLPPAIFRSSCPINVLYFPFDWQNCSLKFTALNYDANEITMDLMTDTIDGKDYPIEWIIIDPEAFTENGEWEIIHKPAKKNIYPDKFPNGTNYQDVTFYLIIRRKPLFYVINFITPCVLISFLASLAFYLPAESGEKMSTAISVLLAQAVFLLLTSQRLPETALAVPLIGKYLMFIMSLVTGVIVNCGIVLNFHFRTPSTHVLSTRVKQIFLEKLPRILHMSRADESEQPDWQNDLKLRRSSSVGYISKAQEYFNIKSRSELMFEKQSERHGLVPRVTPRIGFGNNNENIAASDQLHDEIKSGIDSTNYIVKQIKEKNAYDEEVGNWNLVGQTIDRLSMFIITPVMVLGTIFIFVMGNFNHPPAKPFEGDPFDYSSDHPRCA

IC50 [µM] | Binder
15.6 | B1
74.1 | B2
4.9 | B3
13.2 | B4
